Source: doi:10.1101/2020.09.10.290023

Tests used:
[1] = target: Donor (Alexa 488)-labeled, biotinylated Avi-C-Aβ42 (Avi-D-Aβ42) (UniProt P05067); assay: FRET or BRET
[2] = target: Donor-labeled tetramerization domain (TD) of p53 with AviTag (Avi-D-TD); assay: FRET or BRET

Kd [1] [µM] | stoichiometry N [1] | stoichiometry N [2] | Substance
240 | > 10 |  | Acceptor (Alexa 594)-labeled C-Aβ42 (A-Aβ42) (from UniProt P05067 672-713) (peptide)
 |  | 4 | Acceptor-labeled tetramerization domain (TD) of p53 (TD-A) (domain or fragment)
